Reference: article doi:10.1101/590646

Target: SERINC5-VN-HA (human) (UniProt Q86VE9)
Assay: split reporter

Sequence of UniProt Q86VE9 (Q86VE9 whole entry): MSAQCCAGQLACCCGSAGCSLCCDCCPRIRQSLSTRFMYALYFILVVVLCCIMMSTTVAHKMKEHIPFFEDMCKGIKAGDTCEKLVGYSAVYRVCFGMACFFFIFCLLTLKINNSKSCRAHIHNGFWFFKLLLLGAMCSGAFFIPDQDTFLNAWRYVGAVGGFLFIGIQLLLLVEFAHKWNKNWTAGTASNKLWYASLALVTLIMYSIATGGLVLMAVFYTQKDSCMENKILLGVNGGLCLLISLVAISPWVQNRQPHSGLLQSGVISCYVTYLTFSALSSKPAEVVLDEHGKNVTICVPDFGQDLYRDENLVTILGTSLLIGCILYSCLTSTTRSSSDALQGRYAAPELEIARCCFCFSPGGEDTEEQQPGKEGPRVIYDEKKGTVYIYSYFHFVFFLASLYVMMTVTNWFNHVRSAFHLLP

Nef_(NL43)-V5-VC (HIV-1 NL4-3 Nef fused to a Venus fragment) (natural protein)
fold increase in BiFC fluorescence over the singly expressed constructs: 4 fold
